Assay results taken from paper doi:10.1101/2025.05.03.651265.

Columns and labels:
[1] = target: E2CTD, C-terminal toxin domain of the GA1 T6SS effector E2 from Parabacteroides sp. D25 (Parabacteroides sp. D25); experiment: ITC; settings: natural protein
[2] = target: E2CTD, C-terminal toxin domain of the GA1 T6SS effector E2 from Parabacteroides sp. D25 (Parabacteroides sp. D25); experiment: SEC-MALS; co-purified E2CTD-I2 complex at 2 mg/ml, Superdex 200 Increase 10/300, MiniDAWN detector and Optilab

Substance | Kd [1] [nM] | stoichiometry N [2]
cognate I2 immunity protein from Parabacteroides sp. D25, expressed and purified alone | 27 | –
cognate I2 immunity protein from Parabacteroides sp. D25, untagged, co-expressed with E2CTD (natural protein) | – | 1
I2^PV, divergent cognate I2 protein from P. vulgatus AF31-3 | 5.2 | –
I2^BU, divergent cognate I2 protein from B. uniformis 82G1 | 18 | –
